Experimental data: paper PMC4856418, “Inactive mutants of human pyridoxine 5′‐phosphate oxidase: a possible role for a noncatalytic pyridoxal 5′‐phosphate tight binding site” (FEBS Open Bio, 2016)

Columns and labels:
Experiment in all cases: fluorescence polarisation; 1 μM FMI-labeled hPNPO in a 96-well plate, B6 enzymes added at 0 to 20 μM, incubated at 25 °C for 5 h; excitation 495 nm, emission 535 nm; curves fitted to a simple 1:1 model
Details in all cases: both partners purified
[1] = target: T1, E. coli serine hydroxymethyltransferase (eSHMT) (E. coli, UniProt P0A825 1-417)
T1 construct: E. coli serine hydroxymethyltransferase; also called E. coli SHMT
T1 sequence (looked up): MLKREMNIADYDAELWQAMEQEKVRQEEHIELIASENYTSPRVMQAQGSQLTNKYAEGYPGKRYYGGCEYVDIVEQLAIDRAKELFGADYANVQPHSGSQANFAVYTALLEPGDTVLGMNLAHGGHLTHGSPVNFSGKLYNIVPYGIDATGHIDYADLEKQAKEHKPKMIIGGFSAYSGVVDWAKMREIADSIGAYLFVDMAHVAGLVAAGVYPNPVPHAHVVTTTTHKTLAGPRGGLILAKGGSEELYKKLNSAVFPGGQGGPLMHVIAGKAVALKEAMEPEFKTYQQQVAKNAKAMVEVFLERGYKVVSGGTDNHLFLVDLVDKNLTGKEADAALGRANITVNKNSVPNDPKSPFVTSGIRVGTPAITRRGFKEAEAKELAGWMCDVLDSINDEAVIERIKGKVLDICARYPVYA

[2] = target: T2, rabbit cytosolic serine hydroxymethyltransferase (rcSHMT) (rabbit, UniProt P07511 1-484)
T2 construct: rabbit cytosolic serine hydroxymethyltransferase; In the PLP transfer experiments the apo form (PLP removed with D-alanine) was used; the fluorescence polarization text names rcSHMT without saying apo or holo; also called apo-rcSHMT; apo-SHMT
T2 sequence (looked up): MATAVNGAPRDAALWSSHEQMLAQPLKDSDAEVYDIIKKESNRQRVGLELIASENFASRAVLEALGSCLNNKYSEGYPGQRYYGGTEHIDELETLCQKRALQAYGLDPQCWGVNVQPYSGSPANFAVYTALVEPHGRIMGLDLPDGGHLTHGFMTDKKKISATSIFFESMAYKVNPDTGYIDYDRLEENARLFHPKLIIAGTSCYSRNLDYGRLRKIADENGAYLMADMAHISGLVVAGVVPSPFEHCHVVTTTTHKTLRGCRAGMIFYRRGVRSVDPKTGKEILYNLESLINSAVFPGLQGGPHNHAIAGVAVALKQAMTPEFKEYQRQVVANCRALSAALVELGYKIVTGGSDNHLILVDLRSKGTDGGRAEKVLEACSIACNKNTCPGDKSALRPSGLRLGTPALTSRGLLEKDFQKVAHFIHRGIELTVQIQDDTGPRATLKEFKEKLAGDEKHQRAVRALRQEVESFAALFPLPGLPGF

[3] = target: T3, E. coli L-threonine aldolase (eL-TA) (E. coli, UniProt P75823 1-333)
T3 construct: E. coli L-threonine aldolase
T3 sequence (looked up): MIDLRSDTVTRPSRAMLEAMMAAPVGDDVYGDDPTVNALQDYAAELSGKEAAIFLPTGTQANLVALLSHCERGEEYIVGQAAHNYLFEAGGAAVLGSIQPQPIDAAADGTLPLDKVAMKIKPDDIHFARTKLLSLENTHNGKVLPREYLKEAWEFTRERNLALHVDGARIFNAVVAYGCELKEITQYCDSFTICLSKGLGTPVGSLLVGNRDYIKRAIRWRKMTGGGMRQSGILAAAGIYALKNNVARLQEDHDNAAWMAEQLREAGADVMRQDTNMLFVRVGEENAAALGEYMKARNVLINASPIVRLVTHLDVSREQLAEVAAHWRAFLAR

[4] = target: T4, E. coli aspartate aminotransferase (eAATase) (E. coli, UniProt P00509 1-396)
T4 construct: E. coli aspartate aminotransferase
T4 sequence (looked up): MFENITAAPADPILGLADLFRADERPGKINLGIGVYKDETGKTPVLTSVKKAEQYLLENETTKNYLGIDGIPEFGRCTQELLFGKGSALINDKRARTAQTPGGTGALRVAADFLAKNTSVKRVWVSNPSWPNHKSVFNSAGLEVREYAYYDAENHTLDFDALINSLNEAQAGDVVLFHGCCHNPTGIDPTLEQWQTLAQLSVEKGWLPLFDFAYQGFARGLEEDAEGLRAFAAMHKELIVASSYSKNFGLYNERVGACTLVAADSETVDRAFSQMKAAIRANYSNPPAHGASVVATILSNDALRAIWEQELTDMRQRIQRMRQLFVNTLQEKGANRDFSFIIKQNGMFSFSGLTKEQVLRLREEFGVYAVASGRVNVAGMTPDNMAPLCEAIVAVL

B1: wild-type human pyridoxine 5′-phosphate oxidase (hPNPO) (enzyme)
chain: MTCWLRGVTATFGRPAEWPGYLSHLCGRSAAMDLGPMRKSYRGDREAFEETHLTSLDPVKQFAAWFEEAVQCPDIGEANAMCLATCTRDGKPSARMLLLKGFGKDGFRFFTNFESRKGKELDSNPFASLVFYWEPLNRQVRVEGPVKKLPEEEAECYFHSRPKSSQIGAVVSHQSSVIPDREYLRKKNEELEQLYQDQEVPKPKSWGGYVLYPQVMEFWQGQTNRLHDRIVFRRGLPTGDSPLGPMTHRGEEDWLYERLAP
modifications: labelled with fluorescein 5-maleimide (FMI) in the fluorescence polarization assay; labelled residues not stated
notes: human pyridoxine 5′-phosphate oxidase, wild type; FMI-labelled in the fluorescence polarization assay; also called FMI-labeled hPNPO; FMI-tagged hPNPO
- Kd [1]: 1700 nM
- Kd [2]: 800 nM
- Kd [3]: 12300 nM
- Kd [4]: 300 nM
